Values of other authors as cited in paper PMC10171305.
Where two headings read alike, the source gives them in different places.

What was measured:
Spike (SARS-CoV-2) [1] = target: Spike (SARS-CoV-2) (UniProt P0DTC2)
Spike (SARS-CoV-2) [2] = target: Spike (SARS-CoV-2) (UniProt P0DTC2); remark: listed apart in the source

KREMEN1, sequence (Q96MU8 20-392): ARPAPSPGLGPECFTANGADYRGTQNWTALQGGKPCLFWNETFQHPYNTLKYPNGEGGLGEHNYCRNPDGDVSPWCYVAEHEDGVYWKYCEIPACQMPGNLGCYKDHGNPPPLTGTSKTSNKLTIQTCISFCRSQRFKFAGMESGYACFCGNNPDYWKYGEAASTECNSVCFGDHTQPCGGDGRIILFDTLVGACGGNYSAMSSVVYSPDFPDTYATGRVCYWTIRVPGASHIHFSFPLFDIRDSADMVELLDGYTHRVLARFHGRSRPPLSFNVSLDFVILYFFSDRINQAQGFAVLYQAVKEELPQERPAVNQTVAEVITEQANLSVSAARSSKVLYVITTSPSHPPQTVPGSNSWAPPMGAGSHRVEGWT
ASGR1, sequence (P07306 whole entry): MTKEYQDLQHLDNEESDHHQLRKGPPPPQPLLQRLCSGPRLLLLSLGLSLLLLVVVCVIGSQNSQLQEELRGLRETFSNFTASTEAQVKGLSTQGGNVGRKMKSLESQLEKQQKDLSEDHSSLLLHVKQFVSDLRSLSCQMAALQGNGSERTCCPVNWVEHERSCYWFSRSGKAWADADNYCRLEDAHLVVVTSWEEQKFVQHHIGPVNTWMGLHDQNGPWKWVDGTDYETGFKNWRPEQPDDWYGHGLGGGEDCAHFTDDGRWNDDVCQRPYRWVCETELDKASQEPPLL

| Substance | Kd (Spike (SARS-CoV-2) [1]) [nM] | Kd (Spike (SARS-CoV-2) [2]) [nM] |
| --- | --- | --- |
| ASGR1 (from UniProt P07306) | 94.8 | – |
| KREMEN1 (from UniProt Q96MU8) | – | 19.3 |
